# T1: murine IL-38 (mouse, UniProt Q8R459 1-152, limits assumed, C-terminally-biotinylated form)
# T1 construct: Bacterially expressed in a C-terminally-biotinylated form and used as the antigen for phage selection; also called mouse IL-38; IL1F10
# T1 sequence (looked up): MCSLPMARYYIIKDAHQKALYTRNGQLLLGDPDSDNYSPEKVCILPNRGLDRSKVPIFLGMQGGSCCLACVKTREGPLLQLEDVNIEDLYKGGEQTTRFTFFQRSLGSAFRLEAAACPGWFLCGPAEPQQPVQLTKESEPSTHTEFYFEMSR
# Biological target: T1, murine IL-38
# Assay: biolayer interferometry, fitted sensorgrams (association to about 600 s, dissociation to 1800 s); concentrations of the traces not given
binder,measurement,value
"Fab H06 (Fab, V domains shown, the constant domains of the Fab are not) VH: EVQLVESGGGLVQPGGSLRLSCAASGFSLSYSYIHWVRQAPGKGLEWVASISPSYSYTSYADSVKGRFTISADTSKNTAYLQMNSLRAEDTAVYYCARAPVPHVWPYSGFDYWGQGTLVTVSS VL: DIQMTQSPSSLSASVGDRVTITCRASQSVSSAVAWYQQKPGKAPKLLIYSASSLYSGVPSRFSGSRSGTDFTLTISSLQPEDFATYYCQQAYWSPITFGQGTKVEIK",Kd,69 nM
"Fab E04 (Fab, V domains shown, the constant domains of the Fab are not) VH: EVQLVESGGGLVQPGGSLRLSCAASGFSFSSSSIHWVRQAPGKGLEWVASISPYYSYTSYADSVKGRFTISADTSKNTAYLQMNSLRAEDTAVYYCARTVRGSKKPYFSGWAMDYWGQGTLVTVSS VL: DIQMTQSPSSLSASVGDRVTITCRASQSYYSYVAWYQQKPGKAPKLLIYSASSLYSGVPSRFSGSRSGTDFTLTISSLQPEDFATYYCQQVFAPITFGQGTKVEIK",Kd,6.7 nM

# — patent US20200165334A1 (FRAUNHOFER GESELLSCHAFT ZUR F RDERUNG DER ANGEWANDTEN …, published 2020)
